According to patent US20240092930A1:

What was measured:
[1] = target: human Trop-2 on the surface of cells (CHO/Trop-2 cells; BxPC-3 cells; NCI-N87 cells) (human) (UniProt P09758); experiment: cell-based or functional assay
[2] = target: human Trop-2 on the surface of cells (CHO/Trop-2 cells; BxPC-3 cells; NCI-N87 cells) (human) (UniProt P09758); experiment: FACS, BxPC cells, antibody left on the surface after 3 h at 37° C.
[3] = target: human Trop-2 on the surface of cells (CHO/Trop-2 cells; BxPC-3 cells; NCI-N87 cells) (human) (UniProt P09758); experiment: FACS, BxPC cells, antibody left on the surface, control kept at 4° C.

Sequence of human Trop-2 on the surface of cells (CHO/Trop-2 cells; BxPC-3 cells; NCI-N87 cells) (human) (P09758 27-323): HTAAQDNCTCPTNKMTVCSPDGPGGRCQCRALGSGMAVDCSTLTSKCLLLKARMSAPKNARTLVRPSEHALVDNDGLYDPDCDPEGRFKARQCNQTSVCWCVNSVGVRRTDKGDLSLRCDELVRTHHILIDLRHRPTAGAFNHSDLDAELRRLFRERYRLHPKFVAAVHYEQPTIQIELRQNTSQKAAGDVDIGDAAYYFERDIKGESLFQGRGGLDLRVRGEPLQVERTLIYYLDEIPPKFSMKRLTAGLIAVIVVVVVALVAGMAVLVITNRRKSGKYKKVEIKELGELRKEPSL

IgG1 isotype control antibody NC-IgG1
Internalization percentage (%), 3 h, BxPC cells, FACS [1]: 3.29% | Internalization percentage, 1 h, BXPC-3 cells, FACS [1]: -63% | Internalization percentage, 1 h, NCI-N87 cells, FACS [1]: -95% | Fluorescence intensity (MFI), 37° C. [2]: 715 MFI | Fluorescence intensity (MFI), 4° C. [3]: 739 MFI
